# Measurements published in patent US20200040048A1 (published 2020).
# Bridge positions count the residues as written; N and C are the ends. Square brackets hold non-standard residues; d marks the D form. dPhe(4-CF3) = N[C@H](Cc1ccc(C(F)(F)F)cc1)C(=O)O; R8 = C=CCCCCCC[C@@](C)(N)C(=O)O; R5 = C=CCCC[C@@](C)(N)C(=O)O; hLeu = CC(C)CC[C@H](N)C(=O)O; S5 = C=CCCC[C@](C)(N)C(=O)O; Cou6 = not defined here; Cou8 = not defined here; βAla = NCCC(=O)O
# T1: zebrafish MDMX protein (residues 15-129, L46V/V95L) (zebrafish, UniProt Q7ZUW7 15-129)
# T1 construct: Purified on Ni-NT agarose, so it probably carries a His tag from pET15b
# T1 sequence (looked up): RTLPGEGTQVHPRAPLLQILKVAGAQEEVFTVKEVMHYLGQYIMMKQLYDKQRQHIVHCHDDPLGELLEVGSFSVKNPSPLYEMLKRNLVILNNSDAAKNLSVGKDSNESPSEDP
# T2: MDMX (40 kD), O15151
# T2 chain: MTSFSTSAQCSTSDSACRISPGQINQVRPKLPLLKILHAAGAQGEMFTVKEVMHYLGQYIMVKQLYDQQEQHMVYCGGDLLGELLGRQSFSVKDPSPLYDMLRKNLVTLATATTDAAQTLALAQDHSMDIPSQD
# Key:
# [1] = biological target: T1, zebrafish MDMX protein (residues …); assay: X-ray co-crystallography, complex refined to 2.3 Å
# Procedure: The solution was allowed to sit overnight at 4° C. before setting up crystallization experiments. […] Cells were allowed to grow an additional 18 hr at 23° C. The protein was purified using Ni-NT Agarose followed by Superdex 75 buffered with 50 mM NaPO₄, pH 8.0, 150 mM NaCl, and 2 mM TCEP, and concentrating to 24 mg/ml. The buffer was exchanged to 20 mM Tris, pH 8.0, 50 mM NaCl, and 2 mM DTT for crystallization experiments. Initial crystals were obtained with the Nextal AMS screen #94, and the final optimized reservoir was 2.6 M AMS, 75 mM Hepes, pH 7.5. Crystals grew routinely as thin plates at 4° C. and were cryo-protected by pulling the crystals through a solution containing concentrated (3.4 M) malonate followed by flash cooling, storage, and shipment in liquid nitrogen.
# For data collection, crystals were rotated through 180° in 1° increments using 0.8 second exposure times. […] Molecular replacement with program Molrep (CCP4) was performed with the MDMX component of the structure, and two molecules were identified in the asymmetric unit.
# [2] = biological target: T2, MDMX (40 kD), O15151; assay: competitive FP on MDMX, FAM-labeled linear peptide displaced; Ki grade, + = >1000 nM; conditions: remark: other sources report otherwise
# [3] = biological target: T3, MDM2 (UniProt Q00987 1-138, limits assumed); assay: competitive FP vs FAM-labeled linear peptide, MDM2 41 kD; grade, scale in paragraph 603
# T3 construct: also called MDM2 (41 kD); HDM2
# T3 sequence (Q00987 1-138 limits assumed): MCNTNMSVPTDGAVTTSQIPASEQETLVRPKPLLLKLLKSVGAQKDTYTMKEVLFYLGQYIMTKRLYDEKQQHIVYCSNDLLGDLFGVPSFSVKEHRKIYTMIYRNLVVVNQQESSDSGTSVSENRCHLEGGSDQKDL
# Procedure: Then, diluted solution was further diluted from 100 μM to 10 μM with water (dilution 1:10), and diluted again with FP buffer from 10 μM to 40 nM (dilution 1:250). […] The diluted FAM-labeled peptides were kept in the dark until use.
Binder,Ki [2],further results
"QSQQTFANLWRLLAQN (not fully specified; N-terminal acetyl; C-terminal amide; %r8 at position 7 and % at position 14 are crosslinked alpha-methyl non-natural amino acids forming the i, i+7 aliphatic staple (the token '%' alone is not defined in the filing)) [Ac-QSQQTF%r8NLWRLL%QN-NH2]",–,binding result [1]: binds
Cou6-[βAla]LTF[R8]EYWAQ[hLeu][S5]SAA-NH2 (staple 5-12; reading uncertain) [SP446 Cou6BaLTF$r8EYWAQhL$SAA-NH2],> 1000 nM,–
"Ac-[dT][dA][dW][dY][dA][dN][dPhe(4-CF3)][dE][R5][dL][dL][dR][R5][dA]-NH2 (staple 9-13, also called Ac-tawyanf4CF3e$r5llr$r5a-NH2) [peptidomimetic macrocycle SP 755]",–,IC50 [3]: ≤ 10 nM
Cou8-[βAla]LTF[R8]EYWAQ[hLeu][S5]SAA-NH2 (staple 5-12; reading uncertain) [SP447 Cou8BaLTF$r8EYWAQhL$SAA-NH2],> 1000 nM,–
